Among the data in a protein production outcome set (Wang et al. 2014) are protein production values, retold here.

This series in a line: label from the status in PepcDB records.
As for “KIIGYARVSFNAQKDDLERQIQLIKSYAEENGWDIQILKDIGSGLNEKRKNYKKLLKMVMNRKVEKVIIAYPDRLTRFGFETLKEFFKSYGTEIVIINKKHKTPQEELVEDLITIVSHFAGKLYGMHSHKYKKLTKTVKEIVREEDAKEKE”, the protein production result is “not failed”. As to “MTFPLALIAKNTPANSMIMTKLPSVKVKTEGYNPSVNVNELFAYVDLSGSEPGEHDYEVKVDPIPNIKIVEISPRVVTLQLEHHHHHH”, the protein production result is given as “not failed”. On to “MDRSYAVFGLGEFGRSVSYELMEIGADVLAVDKNENKITAIADDVTMAISIDALNEMAYEKLGLNNMDGVVVSMSGNLSASIMAIIAAKDAGVPLVIAKASDDTQRTIFKKVGADRVVIPERDGAVRTAHNLVAKNFLDYIELSDKISIIEINVKDEWLHKPLAELNLRSKYGLNVIAIRRNNDLQTDIGPNLTFDKGDTILVVTDKHDLGL”, for which the protein production result is reported as “failed”.

Turning to “MFKGTNNASDFTLMSFSDRQAKNHEPRLKARRRGCLIVLADRIIDALYHPAGPCQGADKARQSAIQHFRLDVPEGQCHRLRHLLDMRPAMTQTQPAPACSLPCSILLLAGGRGSRMGGQDKGLVAWRGQPLIAHVQAVVRPLSDDLIISCNRNAERYRAYADRLVEDGQKDFPGPLAGVLAGLATARHPWLLVLACDAPQIDAALIQALLDARGNDTRPVMVQQAGQWQPMFSLIPTALLGDLRQAWDNGERSLLRALAAHGLRPLPCAADDPRLSNFNTPELLSEAGPKPLA”, the protein production entry is recorded as “failed”. As to “MRGVYRVMVKVYIENYGCARNRADGEIMAALLYLSGHEIVESPEESEIVVVNSCAVKDPTERKIARRIRELLDNGKKVIVTGCLPHVNPDVIDERVSAILGVKSIDRIVQAVEYAMRGEKLISVPDWKKRNLDKLDFPRLSPRNVYFILPIAEGCLNACTYCATRLARGVLKSYSPEKIIGWVKWAIKQGYKEIWLSAEDTGCYGFDIGTNLAKLIDEITAIEGEFRIRVGMMNPNHVLKFLDELIDAYKDEKVYKFLHLPVQSGDNEILRKMGRMYTVEEFEEIVKAFRREFPELNLHTDIIVGFPGESEEAFQRSVELIKRIRPDKVNVSRYSPRPGTIAAKWKQLPGWVVKERSRLLHRIRLQISYEINRKYIGKKVKVLIHGEGKKGNVDAVTMNYKHIILPEGRKGEFREARVKNAASTYLLGEIIT”, the protein production entry is reported as “failed”. To “MRVFLLLFLLFPVLELFLLVRVGMSIGFLWTFLLVVATSMLGLFVMRVAGFATALRARESLARGELPAQEMLEGLMVAVGGGLLLLPGFISDILGVICLLPITRRLLISKVRRRAEDQAMRQRAFADDLQTQANQGPASHRPNAIHQPTREPDVIEGEFEHRDK” belongs “failed”. Consider “AIAFKRKTAWFSDSVEKEVISFWVSEGGDISSWKTAGYLFSDDASSEDTKRIYGSEDYVKNRATVFHSSFLLACQPRQSVTSVPIGHYVLPPDFVQNEMKAIIGRFIWEKDEQVICEEQINPEVPKDILSGETEDHALRERSSQDDYQTVTSQSKVCSCCEMRQYPVNNMISGYVHIDQMRKYSGELKDFLPSLHGHDVSRSNDPTPPFHRKAV”, for which the protein production result was “failed”. “MARDGGVSCLRRSEMMSVGGIGGIESAPLDLDEVHVLAVDDSLVDRIVIERLLRITSCKVTAVDSGWRALEFLGLDNEKASAEFDRLKVDLIITDYCMPGMTGYELLKKIKESSNFREVPVVIMSSENVLTRIDRCLEEGAQDFLLKPVKLADVKRLRSHLTKDVKLSNGNKRKLPEDSSSVNSSLPPPSPPLTISPESSPPLTVSTESSDSSPPLSPVEIFSTSPLSSPIDDEDDDVLTSSSEESPIRRQKMRSPGLD”: the protein production result is reported as “failed”.

In the case of “MSPPPAPNPIRDSLIARADALREGGAPAEARDLYRLVLDRHPGHGPALAGLGRILLGLGQPTAALESLGAAVAADPTRLDWLADLAVALAGARRPAEALSAAEGLPATAGALGFRADRLEELGRRDQAIALLDDALRRHPDEAELHRRQGVLLRRAGRAAQAIAPWRALVALRPGDAAAWSSLGAGLGESGLDEEAEKALRRAVALAADEPDWTYNLAHFLIERDRLEDALPLLDAAVARAPERAHYHTNLGVCRLGLGDIKGAIAAHRQALALDPDEPEARYDLAWALLLAGAWEEGWAAHEARWRMGRFTGRRAAGPAPTDWPMPLWDGQPLGPGRTLLLHAEQGFGDSLMMSRLIIPALARAGDAQGIIECPPSLVGLLAQSLGPALGPAVRVVAQAESPPAADAHLPLMSLPHRLGVDSETIPGPDRWLRAEPAPRPPSSPPRVGLVWAGDPGNRMDRLRSCPATALRPLFDRVKDAGLDIAWTGLQLGPPAADLPDLPAALAPGGDFAATARVVAALDLVIGVDTAVIHLAGGLGVETWVMLAYVPDYRWMMDRDDSPWYPSARLFRQSRRGDWRGVIAQVAAALTKRFG”, the protein production result is “failed”.

In the case of “MPHLFYGTAQNGEVIFDEREAHHMRVVRLKEGDVIEATDGNGFSYTCILKSLKKKTAAAKIVKVEEKEKEPTEKLSVVVPIGRWERTRFLIEKCVELGVDEIFFHKFERSQHEISLDKAKIVVREAAKQCKRYLFPKVSFLEKLEFSGNVITLDLDASQNLLDANLEGSITVVVGPEGGFSEKERELLRSSTTIVSLGKKILRFETAAILTVGYIALKKQKI”, the protein production result is “not failed”. The same measure for “TKDWKFTVSMNTAYNKNKIISLPYNGLPNNMQDAYQVYTGRKLADGTYERQWVGGYQEGQEYGVIYAFKSLGIYKSESEIPGNLIDRSTYTENGADAKVLYGPEAWAKLSDAEKEKGLPIQAGDVKWQDVNGDGVIDDYDRVKLGNTIPHWTGGFNINTSWKGLTLNCRLDYALGYWVHDWKTPWIMGNMQGTFNTISLVKDSWSESNPNGKYPVYGWADFLGKRNYDRISDINCYRGDYLAFREISLSYSLPQSWIHKSGLSKVDVSVTAQNLGYITAAKNMATPEYGVSQNGGYPLPRTVVLGLNVTF”: “failed”.

“MIEQELTYQDLRIPSSEIYEAMGYKDSIPDQMVIDETNTLLKRVIPLLRPRFAFFFMEGTLDIEKETLSVQSIHPPTVNPIQDTIPTRSPEQNTFSTQSKSTVFSVGKTIARQLRGSEAFVFFAATAGTEFEVFQHTLQQEEDMVKIYIADSLGSIIAEKTADCMEVALAEYIREKNWKHTNRYSPGYCGWHVSEQQKLFPLFPIAAPCGIRLTDSSLMVPIKSVSGVIGTGTNVRKLEYTCGLCTYENCYRKRKHRLEHHHHHH”: the protein production result is reported as “failed”.

For “MSIPTDVVSLQIMAQVYQKKGLQSIFKKTVESLVEHVPYIDWAGIYMYDQLDYKLVAASNFEEDLRWDCNGELKFPIKNNEDKEVGMLIVRTLQPIAFDVTDVSTLETIATAIGQESYAN”, the protein production result is given as “failed”.

For “MRTRWLPRGRGLGSASARLRSAVAGRGTVRAELGYGAFLSYSGERDRRWLPQLRHAIEKQSRPWYKPPHIRVFLDKTGVSIGPELWGKIEAGLARSDWLVVLASPEARASVWVDREIAWWLEHKSVHTILLVVTAGQLVWDEERGDWDPERSTALPARLAGKFERQPVWKSVDPRPDGDAVFSTDDAGFSPDVDGVAFGVASVVRGLSEDELRSEGLRDTRRNLRTARIVATALGCLLLVASTLSVVAVLSRAEATRQRDQAVVQQLITQSSLLAERDPFAARLKALAAWRIDPSPETRFAVLDAAVNPASGVLSHSVPVDSVAFSPDGRTVASGGSDGVVRIWRTGTQRTAGRPLIGHHQGITSIAFAPDGRTLASSGFDGTVRLWDLADRTQIGAPFNAGAGSVRSVAFGRDGRTLVTVDEADSGTVRVWDVATHRQTGHPLDGPGPVLGTNADGSRVGSSTSQGGIRLWDTASGAPAGGALKGGDGVVTALSFSSDGKTFATADLVGNLRLWDIEARAPVGEPIASPATSTGVRAITFSPDGAMLAAAYEGGGVRLWDLRRRAQVGGPLLAHTSTVESVAFSPDGSVLASASADTTVRLWDVRTLRQAGAPIDTGGKGAAALSPDGRSLAVVDSEQAVRLWDVVARRRVGEPLVRGVYSFSPSLAFRADGAVLAIGADGLRLREVATRRPVGEPLLGTGDVGALSFGPDGRTLVSGGPDSVHVWDLTARPPTGTALGPRSVGVALSPDGRSLATTTQDDTVVFWDMATRRRIGETPGDHTAQITAVAWSPDGTTLATAGRDDTVRLWDAATRERIGAPLRGHHGGLTSVVFSPDGATLATGGNDHTVRLWDVATERPIGAPLEGHGAGVTGVAFTPGGDTLVSWAQDGTARLWNVAATVDPVRSLCAWADGAFTTDRWHEDVPAGPASRTLCRK”, the protein production entry is “failed”. Turning to “MNIKREQVFVWSGKIRLFHWINVIAILLLIVIGVVILNGKLFGVSTDGKILLKTIHVIVGYVFATNLIFRLIIAFIGKTYEKWGKMLPFNKGFTEELIEFTQQKRLTYKGHNPAGKLMVLALLSFMSVQMISGLVIAGTDIYYPPFGNYFIQSIAIDKDNLAVIKPYSKENIDEASYQAMRDFRKPFITAHVYSFYCLLFLIPLHIIGVIVAERRERSAIVSAMFNGYKYLPKDEPTDH”, the protein production result is “failed”. As for “MMKVLLLEDVKNLGKAGEVCEVKDGYGNNFLIANQKAKLATNEVINKYKAEVKKKAEKEALEKAQKLQMVETLQTITLTIHKKVGANGSLFGAITKEEITERLKEQHASLNLDKKDIELKHPIKSTGIYEIEVKLGSGVVGVFKIDVVAE”, the protein production entry is “failed”. Regarding “NPNPISIPIDLSQAGSVVEKEVKIEESWSYHLILQFAVHDRKEDGGLDGKRVWKFLGFNSYDPRDGKQVGYVDYRLAKSELGDLIDETYDCDGTVVPIKITIHQINQDNTKKLIADNLYMTKGNGSGAYTRDITTISLDKGKYIFRIENIEAFSEMIGRKVDFTIYINKRDK”, the protein production entry is recorded as “not failed”. To “MKYIIIGLGNYGHVLAEELSTLGHEVIGADLDEGRVDSIKDKIATAFVIDATDEQSLSVLPLNSVDMVIVAIGENFGASIRVVAMLKQKQVKHIYARAIDGVHKAVLEAFGLEKILTPEEDAARSLVQLLDFGTKMETFRVDSEYYVVKFNVPEKFVGYFVNELNLDEEFNLKLIGLKRSNTIKNCLGISLVEHKVVNELPEDAKIRPDDVLVCYGKYSDFQKLWKALLEHHHHHH” belongs “not failed”.

As for “MEALAELIKRKVPNEGLIIEVGVGFYLKVAKKLKEYGFNVVVVDINQEAVKNAIKERIPGFVDDVFNPNLKIYLKARAIYSIRPNPEIMMALLTLAKKVKVPLYIVPLSGDVPPREMKLINYKGISVYVWEP”, the protein production result was “failed”. The same measure for “MNLKDLLAHRENLMDSAKRARSAITDDMDPADAAQAVENVKSIISEIESTDEAIAARRGVSDVTQKLKGLTITERGTENDSAASRSLGEHFVKAAGDRLKNQAAGAHIEYSVPEYQVKEDAHSSPKDLVEGWGTFYQR”: “not failed”; for “MFIGGAIISFLFLFGYMWKEAHSNRIRHVTLSFPHFPDNGPPLTIFFISDIHRRSVSCRMLETVKGKADLVVIGGDLAEKGVPAARVRENVRRLQTVAPVYFVWGNNDDEVDYDLQSLLEEERVYVLKNKAEVWEHGGVPIALIGVGDVSRKEADIARALEHVPPESFRILACHNPAIIARLEDEQHISLVLSGHTHGGQIRLFSFGLYEKGGLKWHGNTALFTSNGYGTTGVPLRLGAPAETHLIKIVPGKLATEKLEHHHHHH”: “not failed”.
